The values that follow come from article PMC5534430, “Crystal structure of a Pseudomonas malonate decarboxylase holoenzyme hetero-tetramer” (Nature Communications, 2017).

Data set [1] concerns the target T1, MDC hetero-tetramer (MdcA active site) (Pseudomonas aeruginosa, UniProt Q9I6T0).
T1 construct: hybrid hetero-tetramer: full-length MdcA (1-554), MdcD, MdcE of P. aeruginosa and full-length MdcC of P. fluorescens without prosthetic group; only MdcE N-terminal His-tagged; E. coli Rosetta; 140 kD, 1:1:1:1; with Malonate decarboxylase acyl carrier protein (malonate decarboxylase subunit delta), Pseudomonas fluorescens; Malonate decarboxylase subunit beta; Malonate decarboxylase subunit gamma
The data set can be described thus: X-ray crystal structure, […] Å. Format: binding. As to conditions: malonate from the crystallization solution; MdcA active site between domains AN and AC; apo MdcC.

Data set [2] has as its target MdcE subunit of malonate decarboxylase (P. aeruginosa), N-terminal His tag (P. aeruginosa). Briefly: SEC; gel filtration of the co-expressed, purified MdcD–MdcE complex. A general note: SEC sorts molecules by how far they enter the pores of the column.
Substrate in data set [3]: CC(C)(COP(=O)(O)OP(=O)(O)OC[C@H]1O[C@@H](n2cnc3c(N)ncnc32)[C@H](O)[C@@H]1OP(=O)(O)O)[C@@H](O)C(=O)NCCC(=O)NCCSC(=O)CC(=O)O
The data set can be described thus: purified protein. Type of data set: biochemical, Pseudomonas aeruginosa. As to conditions: decarboxylation, 2.5 μM enzyme, 20 mM Tris pH 8.0, Hill equation fit, Hill coefficient 1.68 ± 0.13.

T1 sequence (Q4K4F7 whole entry, one chain of several, further chain): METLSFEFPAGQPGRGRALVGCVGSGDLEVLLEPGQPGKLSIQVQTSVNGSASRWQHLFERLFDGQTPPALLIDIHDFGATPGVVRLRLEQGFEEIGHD
T1 sequence (Q9I6T0 entry or part of it, one chain of several): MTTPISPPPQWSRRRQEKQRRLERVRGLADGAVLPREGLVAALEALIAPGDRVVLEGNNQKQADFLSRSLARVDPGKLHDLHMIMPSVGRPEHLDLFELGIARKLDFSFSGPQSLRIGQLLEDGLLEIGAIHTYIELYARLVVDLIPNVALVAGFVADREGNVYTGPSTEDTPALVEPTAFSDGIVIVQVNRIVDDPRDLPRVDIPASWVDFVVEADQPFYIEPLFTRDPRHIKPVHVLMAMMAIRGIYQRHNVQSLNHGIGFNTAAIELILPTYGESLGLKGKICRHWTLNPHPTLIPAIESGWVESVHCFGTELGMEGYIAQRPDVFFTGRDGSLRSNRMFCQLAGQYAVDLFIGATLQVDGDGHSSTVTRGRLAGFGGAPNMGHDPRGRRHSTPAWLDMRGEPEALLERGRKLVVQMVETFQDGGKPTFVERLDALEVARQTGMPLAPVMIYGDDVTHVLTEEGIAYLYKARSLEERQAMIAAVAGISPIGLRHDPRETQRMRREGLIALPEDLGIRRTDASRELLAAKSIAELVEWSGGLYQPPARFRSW

Take `O=C(O)CC(=O)O` [malonate]: in data set [1], the “X-ray crystal structure, 2.2 Å” value was “A malonate molecule from the crystallization solution is bound in the active site”.

B1: MdcD subunit of malonate decarboxylase (P. aeruginosa) (natural protein)
chain: MTDVARLLALRSFTELGARQRARALLDAGSFRELLDPFAGVQSPWLERQGIVPQADDGVVVARGLLDGQPAVLAAIEGAFQGGSLGEVSGAKIAGALELAAEDNRNGVPTRALLLLETGGVRLQEANLGLAAIAEIQAAIVDLQRYQPVVAVIAGPVGCFGGMSIAAGLCSYVLVTREARLGLNGPQVIEQEAGIAEYDSRDRPFIWSLTGGEQRFASGLADAYLADDLDEVRTSVLAYFAKGLPARPRCRRAEDYLRRLGDLDTAEQPDAAGVRRLYQGLGQGDAT
As usually defined, the stoichiometry N is a count of units in the complex or per binding partner. In the case of B1, the stoichiometry N in data set [2] turned out to be 1.

B2: MdcD–MdcE complex (Pseudomonas aeruginosa PAO1) (protein)
chain 1: MTDVARLLALRSFTELGARQRARALLDAGSFRELLDPFAGVQSPWLERQGIVPQADDGVVVARGLLDGQPAVLAAIEGAFQGGSLGEVSGAKIAGALELAAEDNRNGVPTRALLLLETGGVRLQEANLGLAAIAEIQAAIVDLQRYQPVVAVIAGPVGCFGGMSIAAGLCSYVLVTREARLGLNGPQVIEQEAGIAEYDSRDRPFIWSLTGGEQRFASGLADAYLADDLDEVRTSVLAYFAKGLPARPRCRRAEDYLRRLGDLDTAEQPDAAGVRRLYQGLGQGDAT
chain 2: MSQPFASRGLAWFQALAGSLAPRPGDPASLRVADAELDGYPVRFLAVVPDPDNPFPRARQGEVGLLEGWGLAAAVDEALEADREAPRKRALLAIVDVPSQAYGRREEALGIHQALAGAVDAYARARLAGHPLIGLLVGKAMSGAFLAHGYQANRLIALHDPGVMVHAMGKAAAARITLRSVEELEALAAKVPPMAYDIDSYASLGLLWRTLPVETVEVPSTADLVRVRTCLGEALADILGGPRDLGGRLGAANREASARVRRLLREQW
notes: full-length; N-terminal His-tagged MdcE (28 kD), untagged MdcD (30 kD); co-expressed in E. coli BL21Star (DE3) from pCDFDuet; 1:1 hetero-dimer in solution
One may read the kcat as the maximal rate divided by the concentration of active sites. Turning to B2, in data set [3], the K0.5 worked out at 100 ± 5 µM and the kcat worked out at 2.3 ± 0.1 s⁻¹.
